The text below walks through data of patent publication US20130196320A1, “METHOD FOR IMPROVING CLEAVAGE OF DNA BY ENDONUCLEASE SENSITIVE TO METHYLATION” (CELLECTIS, priority 2010, published 2013).

Broadly, the kcat is the maximal rate divided by the concentration of active sites. Broadly, the Kd is the concentration at which binding is half-saturated. A low value points to tighter binding.

For data set [1], the system named is ADCY9 endogenous recognition site in 293H cells. Description: Meganuclease-induced mutagenesis assay at ADCY9 recognition site. The format is cell-based, human. The protocol: The human 293H cells (ATCC) were plated at a density of 1.2×10^6 cells per 10 cm dish in complete medium (DMEM supplemented with 2 mM L-glutamine, penicillin (100 IU/ml), streptomycin (100 μg/ml), amphotericin B (Fongizone: 0.25 μg/ml, Invitrogen-Life Science) and 10% FBS). The cells were pre-treated with 5-aza-deoxycytidine at 0.2 μM or 1 μM, 48 hours before transfection and the treatment was maintained 48 hours post-transfection. The medium was changed every day. The cells were transfected with 5 μg of DNA plasmids encoding meganuclease using Lipofectamine 2000 transfection reagent (Invitrogen) according to the manufacturer's protocol.
The efficiency of the meganuclease to promote mutagenesis at its endogenous recognition site was evaluated by sequencing the DNA surrounding the meganuclease cleavage site.
Two days post-transfection, genomic DNA was extracted. 200 ng of genomic DNA were used to amplify (PCR amplification) the endogenous locus surrounding the meganuclease cleavage site. PCR amplification is performed to obtain a fragment flanked by specific adaptor sequences [adaptor A: 5′-[…]-NNNN-3′ (SEQ ID NO: 46) and adaptor B, 5′-[…]-3′ (SEQ ID NO: 47)] provided by the company offering sequencing service (GATC Biotech AG, Germany) on the 454 sequencing system (454 Life Sciences). The primers sequences used for PCR amplification were: ADCY9_F3: 5′-[…]-NNNN-[…]-3′ (SEQ ID NO: 48) and ADCY9_R3: 5′-[…]-[…]-3′ (SEQ ID NO: 49). Sequences specific to the locus are underlined. The sequence NNNN in primer F1 is a Barcode sequence (Tag) needed to link the sequence with a PCR product. The percentage of PCR fragments carrying insertion or deletion at the meganuclease cleavage site is related to the mutagenesis induced by the meganuclease through NHEJ pathway in a cell population, and therefore correlates with the meganuclease activity at its endogenous recognition site. 5000 to 10000 sequences were analyzed per conditions.

Data set [2] has as its system random target (stretch of 12 GA repeats). In words: In vitro single turn over cleavage assay with random target. The format is biochemical.
Data set [3] has as its target random target (stretch of 12 GA repeats). In words: In vitro binding assay with random target. The protocol:
Fluorescein labeled C1234 oligonucleotides were synthesized and HPLC-purified by Eurogentec. To prepare C 1234 duplex corresponding to I-Cre I double strand DNA wild type target, C1234 forward (SEQ ID NO: 31, “a” strand below) labeled with Fluorescein on its 5′ end was mixed with 1 equivalent of C1234_reverse (SEQ ID NO: 32, “b” strand below) in 100 mM Tris-HCl, 50 mM EDTA, 150 mM NaCl, pH8. The mixture was heated to 95° C. for 2 min and then cooled down to 25° C. over 1 hour. C1234 duplex was eventually purified by anion exchange chromatography using a miniQ PE column (GE healthcare) pre-equilibrated with buffer A (20 mM Tris-HCl, pH7.4). Single stranded oligonucleotides and other contaminants were first discarded using a 0 to 360 mM NaCl step gradient and elution of pure C1234 duplex was performed with a 360-1000 mM NaCl linear gradient (5 column volumes). C 1234 duplex and fluorescein final concentrations were assessed by spectrophotometry using their respective extinction coefficients ε260nm=62900 M^−1 cm^−1 and ε495nm=83000 M^−1 cm^−1. As expected, a ratio [C1234 duplex]/[fluorescein]˜1 was obtained. […] After 30 minutes incubation, the fluorescence anisotropy of the mixture was recorded with a Pherastar Plus (BMG Labtech) operating in fluorescence polarization end point mode with excitation and emission wavelengths set to 495 and 520 nm respectively. Apparent dissociation constants were determined by fitting raw data by an hyperbolic function (Ax=(A∞*[Meganuclease])/(Kd+[Meganuclease]) with Ax, the fluorescence anisotropy value obtained at a given meganuclease concentration, A∞, the fluorescence anisotropy value obtained at saturating concentration of meganuclease and Kd the dissociation constant of the equilibrium studied).

Take `Nc1ncn([C@H]2C[C@H](O)[C@@H](CO)O2)c(=O)n1` [5-aza-2′deoxycytidine, reference compound]: the “mutagenesis, PCR fragments carrying a mutation” value in data set [1] (Empty vector, 0.2 μM 5-aza-2′-deoxycytidine) is listed as 0.03%; in data set [1] (Empty vector, 1 μM 5-aza-2′-deoxycytidine) it was 0.03%.

B1: ADCY9: engineered meganuclease (SEQ ID NO: 3) designed to cleave adenylate cyclase 9 gene (protein)
chain: MANTKYNEEFLLYLAGFVDGDGSIIAQIKPNQSYKFKHQLSLTFRVTQKTQRRWFLDKLVDEIGVGYVRDSGSVSNYDLSEIKPLHNFLTQLQPFLELKQKQANLVLKIIEQLPSAKESPDKFLEVCTWVDQVAALNDSKTRKTTSETVRAVLDSLSEKKKSSPAAGGSDKYNQALSKYNQALSKYNQALSGGGGSNKKFLLYLAGFVDSDGSIIAQIKPDQSYKFKHQLGLTFQVTQKTQRRWFLDKLVDRIGVGYVRDRGSVSDYILSEIKPLHNFLTQLQPFLKLKQKQANLVLKIIEQLPSAKESPDKFLEVCTWVDQVAALNDSKTRKTTSETVRAVLDSLSEKKKSSP
As to B1, the “mutagenesis, PCR fragments carrying a mutation” value in data set [1] (ADCY9 meganuclease, 0 μM 5-aza-2′-deoxycytidine) is on record as 0.16% ± 0.06; in data set [1] (ADCY9 meganuclease, 0 μM 5-aza-2′-deoxycytidine, listed as ADCY9 meganuclease), 0.16%±0.06; in data set [1] (ADCY9 meganuclease, 0.2 μM 5-aza-2′-deoxycytidine), 0.48% ± 0.01; in data set [1] (ADCY9 meganuclease, 1 μM 5-aza-2′-deoxycytidine) it was 0.36%. Besides, in data set [1] (ADCY9 meganuclease, samples treated with 5-aza-2′deoxycytidine, n=2), the mutations result is “up to 0.48%±0.01”. Moreover, in data set [2], the kcat is less than 0.0001 min⁻¹. Besides, in data set [3], the Kd was greater than 1000 nM.

B2: XPC4: engineered meganuclease (SEQ ID NO: 2) designed to cleave xeroderma pigmentosum group C gene (XPC) (protein)
chain: MANTKYNEEFLLYLAGFVDGDGSIIAQIKPNQSHKFKHALQLTFKVTQKTQRRWFLDKLVDEIGVGYVQDSGSVSNYILSEIKPLHNFLTQLQPFLELKQKQANLALKIIEQLPSAKESPDKFLEVCTWVDQVAALNDSKTRKTTSETVRAVLDSLSEKKKSSPAAGGSDKYNQALSKYNQALSKYNQALSGGGGSNKKFLLYLAGFVDSDGSIIAQIKPNQSHKFKHQLSLAFQVTQKTQRRWFLDKLVDRIGVGYVRDRGSVSDYILSKIKPLHNFLTQLQPFLKLKQKQANLVLKIIEQLPSAKESPDKFLEVCTWVDQVAALNDSKTRKTTSETVRAVLDSLSEKKKSSP
B2: the kcat in data set [2] was less than 0.0001 min⁻¹. Moreover, in data set [3], the Kd is greater than 1000 nM.

B3: I-CreI: wild-type I-CreI meganuclease (… homing endonuclease), SEQ ID NO: 1, recombinant Cterm His-tag (protein, listed as Chlamydomonas reinhardtii)
chain: MNTKYNKEFLLYLAGFVDGDGSIIAQIKPNQSYKFKHQLSLTFQVTQKTQRRWFLDKLVDEIGVGYVRDRGSVSDYILSEIKPLHNFLTQLQPFLKLKQKQANLVLKIIEQLPSAKESPDKFLEVCTWVDQIAALNDSKTRKTTSETVRAVLDSLSEKKKSSP
modifications: C-terminal His-tag
Turning to B3, the kcat in data set [2] was less than 0.0001 min⁻¹. The Kd in data set [3] is greater than 1000 nM.
